{"source": "patent US20190211099A1", "about": "“METHODS AND COMPOSITIONS FOR TREATING CANCER WITH SIGLEC-9 ACTIVITY MODULATORS” (KING'S COLLEGE LONDON, priority 2016, published 2019)", "biological_target": "Siglec-9 expressed by primary monocytes, monocyte-derived macrophages and monocytic cell lines (THP-1, U937) (human) (UniProt Q9Y336)", "sequence (Q9Y336 19-463)": "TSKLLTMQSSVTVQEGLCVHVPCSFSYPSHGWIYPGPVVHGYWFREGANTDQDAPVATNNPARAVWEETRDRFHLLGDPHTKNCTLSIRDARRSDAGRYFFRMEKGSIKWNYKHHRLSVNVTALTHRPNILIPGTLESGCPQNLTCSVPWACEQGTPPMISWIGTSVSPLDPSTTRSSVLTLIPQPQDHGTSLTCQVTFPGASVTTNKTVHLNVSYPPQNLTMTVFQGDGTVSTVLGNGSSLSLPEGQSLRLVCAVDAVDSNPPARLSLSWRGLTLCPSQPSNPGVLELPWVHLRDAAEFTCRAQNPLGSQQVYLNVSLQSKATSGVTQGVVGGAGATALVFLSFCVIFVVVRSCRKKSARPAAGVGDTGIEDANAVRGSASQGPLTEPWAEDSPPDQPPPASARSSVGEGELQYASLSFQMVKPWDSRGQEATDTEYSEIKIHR", "assay": "cell-based or functional assay", "data": [{"substance": "MUC1-ST (recombinant secreted MUC1 consisting of 16 tandem repeats carrying sialylated Core-1 glycans, Ig part removed by trypsin) (from UniProt P15941 129-448) (ligand)", "values": [{"measurement": "IDO mRNA expression in macrophages (qRT-PCR)", "result": "10 to 25", "unit": "fold"}]}]}
